Changes are numbered by the printed parent chain.
T1: LRP2 CR2728 (human, UniProt P98164 3552-3631)
T1 construct: domain: CR2728; Its cloning is not described in the methods; not shown: N-terminal hexahistidine and S-peptide tags of pET30(+)a
T1 sequence (looked up): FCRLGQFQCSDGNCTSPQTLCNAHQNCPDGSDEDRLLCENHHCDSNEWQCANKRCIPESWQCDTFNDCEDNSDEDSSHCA

T2: MAT CR12 (human, UniProt Q9Y5Y6 452-524)
T2 construct: also called ST14 CR12; matriptase CR12
T2 sequence: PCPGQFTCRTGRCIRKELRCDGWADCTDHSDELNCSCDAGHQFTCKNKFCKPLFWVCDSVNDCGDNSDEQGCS

B1: mRAPc (peptide)
peptide: CGFREELKHFEAKIEKHNHYQKQLEIAHEKLRHAESVGDGERVSRSREKHALLEGRTKELGYTVKKHLQDLSGGC
modifications: N-terminal biotin-GGSGG; intramolecular disulfide between C241 and C315 (mature RAP numbering)
notes: Synthetic; also called mRAPc peptide; monomeric peptide
B2: tag-free RAP d3 peptide (amino acids 201-319 of mature human RAP, C-terminal cysteine linked to biotin) (ligand)
chain: LDRLRRVSHQGYSTEAEFEEPRVIDLWDLAQSANLTDKELEAFREELKHFEAKIEKHNHYQKQLEIAHEKLRHAESVGDGERVSRSREKHALLEGRTKELGYTVKKHLQDLSGRISRARC
modifications: C-terminal cysteine linked to maleimide-PEO2-biotin
notes: Bacterially expressed, from GeneScript; lacks HNEL; also called full-length RAP d3
B3: 320RAP1 (full-length d3 variant) (ligand)
chain: LDRLRRVSHQGYSTEAEFEEPRVIDLWDLAQSANLTDKELEAFREELKHFEAKIESHNHYQKQLEIAHESMRHAESVGYGERMSRSREKHALLEGRTKELGYTVTMHLQDLSGRISRAR
notes: Selected by phage panning on the CR pair of FDC-8D6 antigen; not shown: N-terminal hexahistidine and S-peptide tags of pET30(+)a
B4: MatRAP1 d3 (ligand)
chain: B3 chain with E51G, S56R, S70W, M71L, Y79D, M83V, T105K, M106K
notes: Selected by phage panning on MAT CR23; also called RAP vMA; not shown: N-terminal hexahistidine and S-peptide tags of pET30(+)a
B5: 320RAP1 truncated variant (identical truncations as MatRAP1, amino acids 243-313) (ligand)
chain: FREELKHFEAKIESHNHYQKQLEIAHESMRHAESVGYGERMSRSREKHALLEGRTKELGYTVTMHLQDLSG
notes: also called truncated form of 320RAP1; not shown: N-terminal hexahistidine and S-peptide tags of pET30(+)a
B6: MatRAP2 d3 (ligand)
chain: LDRLRRVSHQGYSTEAEFEEPRVIDLWDLAQPANLTDKGLEAFREGLKHFLAKIEPHNHYQKQLETVREPLRYAESVGDGERVSRSHEKYALLEGRTRELGYTVKKHLQDLFGRISRAR
notes: Selected by phage panning on MAT CR34; also called RAP vMB; not shown: N-terminal hexahistidine and S-peptide tags of pET30(+)a

Experiments:
[1] = molecular target: T3, recombinant human LRP1 ligand binding cluster II (amino acids 786-1165, C-terminal Fc) (human); assay: competition ELISA, inhibition of RAP d3 (2 nM) binding to coated LRP1 cluster II-Fc
T3 construct: range 786-1165; Bought from R&D Systems, NS0-expressed; also called rhLRP1 cluster II; hrLRP1 cluster II
Method: (§1) Solid phase binding assays were performed using recombinant human LRP1 cluster II (amino acids 786-1165, with C-terminal Fc tag, 1 μg, R&D Systems, Minneapolis, Minn.) to coat Nunc MAXISORP™ 96-well plates in TBS pH 8 supplemented with 5 mM CaCl₂ (TBSC) overnight at 4° C. Data was generated by ELISA assay. Wells were washed with TBSC and blocked with TBSC containing 2% BSA. […] Control wells contained no added inhibitor. Wells were washed with TBS supplemented with 5 mM CaCl₂ and 0.05% Tween-20. Bound ligand was detected with either anti-S-peptide-HRP conjugate (Abcam, Cambridge, Mass.), anti-α-2-macroglobulin-HRP or anti-PAI-1-HRP. Excess HRP conjugate was removed and wells washed. Color was developed using TMB reagents (BioRad, Hercules, Calif.). Absorption at 450 nm was measured with a microplate spectrophotometer (Molecular Devices, Palo Alto, Calif.).

[2] = molecular target: T3, recombinant human LRP1 ligand binding …; assay: solid-phase binding assay, receptor coated on plate, streptavidin-HRP detection, EDTA-subtracted
Method: (§2) Solid phase binding assays were carried out as follows. Recombinant murine VLDLR ectodomain (aa 1-798, C-terminal hexahistidine, 1 μg) or rhLRP1 cluster II (aa 786-1165, C-terminal Fc, 1 μg) were bound to Nunc Maxisorp™ 96-well plates in TBS pH 8 supplemented with 5 mM CaCl₂ (TBSC) overnight at 4° C. Wells were washed with TBSC and then blocked with TBSC containing 2% BSA. Peptides were then incubated with the immobilized receptor at a range of concentrations for 2 hours in the above blocking buffer supplemented with 0.05% Tween-20 at room temperature. Identical binding reactions were done in the presence of 50 mM EDTA to provide a measure of non-specific binding. Control wells contained no added peptide. […] Excess streptavidin-HRP or primary antibody was removed and wells washed before incubation with the secondary antibody, when necessary, HRP-conjugated goat anti rabbit IgG (Bio-Rad). Color was developed using TMB reagents (BioRad). Absorption at 450 nm was measured with a microplate spectrophotometer (Molecular Devices). Absorption obtained in the presence of EDTA was subtracted from absorption obtained in the presence of calcium prior to analysis. Data were plotted and Kd values derived by non-linear regression with the assumption of single-site binding (GraphPad Prism).

[3] = molecular target: T4, recombinant mouse VLDLR ectodomain (amino acids 1-798, C-terminal hexahistidine) (mouse, UniProt P98156 28-798); assay: as above
T4 construct: range 1-798; Bought from R&D Systems, NS0-expressed; The printed range starts at 1 and so may count a signal peptide; also called rmVLDLR ectodomain; mVLDLR
Method: as §2

[4] = molecular target: T3, recombinant human LRP1 ligand binding …; assay: inhibitor pre-incubated with coated LRP1 cluster II-Fc, washed, then RAP d3 added; inhibition of RAP d3 binding
Method: as §1

[5] = molecular target: T3, recombinant human LRP1 ligand binding …; assay: competition ELISA on coated LRP1 cluster II-Fc; competitor called the heterologous ligand (FIG. 14C; the figure legend names uPA-PAI-1)
Method: as §1

[6] = molecular target: T5, 8D6 CR12 (CR pair from FDC-8D6 antigen, CD320) (human, UniProt Q9NPF0 53-168); assay: solid-phase assay on the coated FDC-8D6 antigen CR pair, relative binding
T5 construct: also called FDC-8D6 antigen pair; target CR pair from FDC-8D6 antigen; not shown: N-terminal hexahistidine and S-peptide tags of pET30(+)a

[7] = molecular target: T6, LRP2 CR89 (human, UniProt P98164 1025-1102); assay: solid-phase assay on coated CR protein, each ligand at 80 nM, blank-corrected absorbance
T6 construct: domain: CR89; also called YVWR; L2 CR89; not shown: N-terminal hexahistidine and S-peptide tags of pET30(+)a
Method: (§3) Samples were tested twice, in duplicate, and values combined. Means and standard deviations were then calculated. Blank values obtained from wells incubated in the absence of ligand were used to correct absorbance data.
(§4) Solid phase binding assays-Purified, refolded CR protein (1 μg) was bound to Nunc Maxisorp™ 96-well plates in TBS pH 8 supplemented with 5 mM CaCl₂ (TBSC) overnight at 4° C. Wells were washed with TBSC and then blocked with TBSC containing 2% bovine serum albumin (BSA). […] Control wells contained no added ligand. As an additional control, to determine whether the absence of calcium affected binding, 10 mM EGTA was included in the incubation medium for some samples. […] Excess primary antibody was removed and wells washed before incubation with the secondary antibody, HRP-conjugated goat anti rabbit IgG (Bio-Rad). After washing, TMB substrate solutions (Bio-Rad) were added to detect HRP. Color development was stopped with 1N HCl. Absorption at 450 nm was measured with a microplate spectrophotometer (Molecular Devices). Data were plotted and Kd values derived by non-linear regression with the assumption of single-site binding (GraphPad Prism).

[8] = molecular target: T7, LRP2 CR3536 (human, UniProt P98164 3882-3963); assay: as above
T7 construct: domain: CR3536; not shown: N-terminal hexahistidine and S-peptide tags of pET30(+)a
Method: as §3, §4

[9] = molecular target: T8, LRP2 CR34-36 (human, UniProt P98164 3841-3963); assay: as above
T8 construct: domain: CR34-36; not shown: N-terminal hexahistidine and S-peptide tags of pET30(+)a
Method: as §3, §4

[10] = molecular target: T1, LRP2 CR2728; assay: as above
Method: as §3, §4

[11] = molecular target: T9, LRP2 CR3031 (human, UniProt P98164 3677-3755); assay: as above
T9 construct: domain: CR3031; Its cloning is not described in the methods; not shown: N-terminal hexahistidine and S-peptide tags of pET30(+)a
Method: as §3, §4

[12] = molecular target: T2, MAT CR12; assay: binding of truncated MatRAP1 forms to MAT CR12, relative signal under isomolar conditions
Method: as §4

[13] = molecular target: T5, 8D6 CR12 (CR pair from FDC-8D6 antigen, …); assay: solid-phase binding assay, CR protein coated on plate
Method: Control wells contained no added ligand. As an additional control, to determine whether the absence of calcium affected binding, 10 mM EGTA was included in the incubation medium for some samples. […] Excess primary antibody was removed and wells washed before incubation with the secondary antibody, HRP-conjugated goat anti rabbit IgG (Bio-Rad). After washing, TMB substrate solutions (Bio-Rad) were added to detect HRP. Color development was stopped with 1N HCl. Absorption at 450 nm was measured with a microplate spectrophotometer (Molecular Devices). Data were plotted and Kd values derived by non-linear regression with the assumption of single-site binding (GraphPad Prism).

T3 sequence (Q07954 786-1165): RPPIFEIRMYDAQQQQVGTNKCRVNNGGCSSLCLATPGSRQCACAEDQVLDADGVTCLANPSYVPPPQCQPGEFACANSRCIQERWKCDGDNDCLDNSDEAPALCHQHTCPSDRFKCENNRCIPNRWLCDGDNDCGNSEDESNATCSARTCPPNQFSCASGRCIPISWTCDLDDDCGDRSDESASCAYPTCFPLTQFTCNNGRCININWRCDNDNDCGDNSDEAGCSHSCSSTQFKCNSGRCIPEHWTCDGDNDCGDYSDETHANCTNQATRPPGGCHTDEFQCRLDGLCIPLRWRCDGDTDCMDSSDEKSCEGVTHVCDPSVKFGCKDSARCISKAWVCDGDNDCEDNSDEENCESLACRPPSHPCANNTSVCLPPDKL
T9 sequence (P98164 3677-3755): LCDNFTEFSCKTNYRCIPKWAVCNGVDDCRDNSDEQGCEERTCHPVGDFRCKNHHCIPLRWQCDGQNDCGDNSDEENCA
T5 sequence (Q9NPF0 other isoform, or with tags, fused parts or gaps): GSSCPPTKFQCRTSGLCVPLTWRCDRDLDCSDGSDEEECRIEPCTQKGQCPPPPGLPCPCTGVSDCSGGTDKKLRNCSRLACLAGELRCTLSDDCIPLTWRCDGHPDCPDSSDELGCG
T7 sequence (P98164 3882-3963): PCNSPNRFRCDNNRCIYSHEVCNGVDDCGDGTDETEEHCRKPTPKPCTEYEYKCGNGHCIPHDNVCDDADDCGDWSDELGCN
T4 sequence (P98156 other isoform, or with tags, fused parts or gaps limits assumed, form in doubt): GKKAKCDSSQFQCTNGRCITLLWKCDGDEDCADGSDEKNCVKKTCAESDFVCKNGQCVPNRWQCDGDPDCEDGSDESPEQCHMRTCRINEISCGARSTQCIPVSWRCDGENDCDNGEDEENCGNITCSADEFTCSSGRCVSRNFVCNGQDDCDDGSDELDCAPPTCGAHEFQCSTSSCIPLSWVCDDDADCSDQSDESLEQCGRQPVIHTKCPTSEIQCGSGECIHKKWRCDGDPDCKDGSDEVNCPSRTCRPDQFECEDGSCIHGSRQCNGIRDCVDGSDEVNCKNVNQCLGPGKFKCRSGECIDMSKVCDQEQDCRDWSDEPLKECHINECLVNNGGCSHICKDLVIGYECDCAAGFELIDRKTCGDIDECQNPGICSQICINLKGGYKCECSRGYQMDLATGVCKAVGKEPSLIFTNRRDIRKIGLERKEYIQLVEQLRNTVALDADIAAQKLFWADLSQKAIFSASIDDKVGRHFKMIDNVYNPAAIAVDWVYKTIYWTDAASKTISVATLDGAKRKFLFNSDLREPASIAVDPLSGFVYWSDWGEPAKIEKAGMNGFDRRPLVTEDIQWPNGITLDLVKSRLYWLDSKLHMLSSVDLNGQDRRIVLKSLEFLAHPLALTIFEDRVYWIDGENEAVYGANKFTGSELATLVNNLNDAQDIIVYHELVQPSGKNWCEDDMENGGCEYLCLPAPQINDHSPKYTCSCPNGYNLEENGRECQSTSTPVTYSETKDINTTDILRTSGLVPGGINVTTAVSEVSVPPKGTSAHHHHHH
T8 sequence (P98164 3841-3963): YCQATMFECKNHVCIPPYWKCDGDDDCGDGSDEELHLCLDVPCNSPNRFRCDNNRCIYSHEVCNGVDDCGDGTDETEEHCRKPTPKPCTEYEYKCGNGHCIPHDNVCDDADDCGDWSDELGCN
T6 sequence (P98164 1025-1102): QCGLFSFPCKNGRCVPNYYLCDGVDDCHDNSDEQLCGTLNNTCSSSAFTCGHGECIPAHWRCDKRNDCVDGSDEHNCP

Binder | Kd [2] [nM] | Kd [3] [nM] | binding result [7] | binding result [8] | binding result [9] | binding result [10] | binding result [11] | further results
B1 | 10 | 5 | – | – | – | – | – | EC50 [1]: 32 nM; EC50 [4]: 17 nM; EC50 [5]: 7 nM
B2 | 8 | 1 | – | – | – | – | – | –
B3 | – | – | – | – | – | – | – | EC50 (read off the curve) [6]: ~7 nM
B4 | – | – | no binding (tested: 80 nM) | no binding (tested: 80 nM) | no binding (tested: 80 nM) | no binding (tested: 80 nM) | no binding (tested: 80 nM) | fnctn (relative binding signal under isomolar conditions) [12]: 0.22
B5 | – | – | – | – | – | – | – | fold improvement in affinity against the full-length variant [13]: 3.5 fold
B6 | – | – | no binding (tested: 80 nM) | no binding (tested: 80 nM) | no binding (tested: 80 nM) | no binding (tested: 80 nM) | no binding (tested: 80 nM) | –

Source: patent publication US20100210517A1 (RAPTOR PHARMACEUTICAL, published 2010)
